Tested on: SpyTag-CsgA

Row | Substance | PTDH activity (OD 340 nm, absorbance of formed NADH) | amylase activity
1 | PTDH-SpyCatcher | the thin cotton cloth exhibited almost exclusive specific-enzyme binding | 
2 | amylase-SpyCatcher |  | amylase activity was observed throughout the experiment

Reference: patent US20190315799
